Substrate in the data set: NC(=O)c1ncn([C@@H]2O[C@H](COP(=O)(O)O)[C@@H](O)[C@H]2O)c1N
The note with it: Homo sapiens.

This passage reports Km results from ChEMBL document CHEMBL1156444, “Structure-based design, synthesis, evaluation, and crystal structures of transition state analogue inhibitors of inosine monophosphate cyclohydrolase” (J Biol Chem, 2007).

Description: Activity of human wild-type ATIC assessed as IMPCH activity

B1: Bifunctional purine biosynthesis protein ATIC (Homo sapiens), P31939 (protein)
chain: MAPGQLALFSVSDKTGLVEFARNLTALGLNLVASGGTAKALRDAGLAVRDVSELTGFPEMLGGRVKTLHPAVHAGILARNIPEDNADMARLDFNLIRVVACNLYPFVKTVASPGVTVEEAVEQIDIGGVTLLRAAAKNHARVTVVCEPEDYVVVSTEMQSSESKDTSLETRRQLALKAFTHTAQYDEAISDYFRKQYSKGVSQMPLRYGMNPHQTPAQLYTLQPKLPITVLNGAPGFINLCDALNAWQLVKELKEALGIPAAASFKHVSPAGAAVGIPLSEDEAKVCMVYDLYKTLTPISAAYARARGADRMSSFGDFVALSDVCDVPTAKIISREVSDGIIAPGYEEEALTILSKKKNGNYCVLQMDQSYKPDENEVRTLFGLHLSQKRNNGVVDKSLFSNVVTKNKDLPESALRDLIVATIAVKYTQSNSVCYAKNGQVIGIGAGQQSRIHCTRLAGDKANYWWLRHHPQVLSMKFKTGVKRAEISNAIDQYVTGTIGEDEDLIKWKALFEEVPELLTEAEKKEWVEKLTEVSISSDAFFPFRDNVDRAKRSGVAYIAAPSGSAADKVVIEACDELGIILAHTNLRLFHH
A word on the Km: it is the concentration of substrate that gives half-maximal velocity. With B1, the Michaelis constant (Km) stood at 1.9 µM.
